For the assay, the target named is epidermal growth factor receptor (EGFR) on A431 cells (Homo sapiens, endogenous on A431 cells, UniProt P00533). In words: flow cytometry on cells. In general terms: A flow cytometer gives signals particle by particle.

B1: Fc5^FL-ELP^DB (VHH)
VHH: EVQLQASGGGLVQAGGSLRLSCAASGFKITHYTMGWFRQAPGKEREFVSRITWGGDNTFYSNSVKGRFTISRDNAKNTVYLQMNSLKPEDTADYYCAAGSTSTATPLRVDYWGKGTQVTVSS
Take B1: the binding result is “no binding (tested: 1 μM)”.
